What was measured:
[1] = molecular target: HLA-A*02:01; assay: IEDB peptide-MHC binding, purified MHC/competitive/radioactivity; ≥ and ≤ were set here for values at or beyond the usual limits of such assays; details: source organism: Hepatitis B virus
[2] = molecular target: HLA-B*35:01; assay: IEDB peptide-MHC binding, purified MHC/competitive/fluorescence; filed as Kd, often an IC50 or EC50 that approximates it; ≥ and ≤ were set here for values at or beyond the usual limits of such assays; details: source organism: Vaccinia virus WR
[3] = molecular target: HLA-A*26:03; assay: as above; details: source organism: Vaccinia virus WR
[4] = molecular target: HLA-B*07:02; assay: as above; details: source organism: Vaccinia virus WR
[5] = molecular target: HLA-A*26:02; assay: as above; details: source organism: Vaccinia virus WR
[6] = molecular target: HLA-B*08:01; assay: IEDB peptide-MHC binding, purified MHC/direct/fluorescence; filed as Kd, often an IC50 or EC50 that approximates it; ≥ and ≤ were set here for values at or beyond the usual limits of such assays; details: source organism: Variola virus
[7] = molecular target: HLA-A*68:02; assay: as above; details: source organism: Cowpox virus
[8] = molecular target: HLA-B*39:01; assay: as above; details: source organism: Cowpox virus
[9] = molecular target: HLA-A*26:01; assay: as above; details: source organism: Variola virus
[10] = molecular target: HLA-B*15:01; assay: as above; details: source organism: Cowpox virus
[11] = molecular target: HLA-B*58:01; assay: as above; details: source organism: Cowpox virus
[12] = molecular target: HLA-B*15:17; assay: as above; details: source organism: Cowpox virus
[13] = molecular target: HLA-A*69:01; assay: as above; details: source organism: Cowpox virus
[14] = molecular target: HLA-B*18:01; assay: as above; details: source organism: Cowpox virus
[15] = molecular target: HLA-A*02:01; assay: as above; details: source organism: Cowpox virus
[16] = molecular target: HLA-B*08:02; assay: as above; details: source organism: Variola virus
[17] = molecular target: HLA-B*40:01; assay: as above; details: source organism: Cowpox virus
[18] = molecular target: HLA-B*08:03; assay: as above; details: source organism: Variola virus
[19] = molecular target: HLA-B*27:05; assay: as above; details: source organism: Cowpox virus
[20] = molecular target: HLA-B*48:01; assay: as above; details: source organism: Cowpox virus
[21] = molecular target: HLA-B*46:01; assay: as above; details: source organism: Cowpox virus
[22] = molecular target: HLA-A*01:01; assay: as above; details: source organism: Cowpox virus
[23] = molecular target: HLA-B*57:01; assay: as above; details: source organism: Cowpox virus

QLFHLCLII showed an IC50 [1] of 0.13 µM.
Sequence YHRPLTGYM has a Kd [2] of at least 20 µM, a Kd [3] of at least 20 µM and a Kd [4] of 0.302 µM. It also gave a Kd [5] of at least 20 µM, a Kd [6] of at least 20 µM and a Kd [7] of at least 20 µM. The Kd [8] was at least 20 µM, the Kd [9] was at least 20 µM and the Kd [10] was at least 20 µM. It also gave a Kd [11] of at least 20 µM, a Kd [12] of at least 20 µM and a Kd [13] of at least 20 µM. The Kd [14] was at least 20 µM, the Kd [15] was at least 20 µM and the Kd [16] was at least 20 µM. For the same sequence, the Kd [17] was at least 20 µM, the Kd [18] was at least 20 µM and the Kd [19] was at least 20 µM. The Kd [20] was at least 20 µM, the Kd [21] was at least 20 µM and the Kd [22] was at least 20 µM. For the same sequence, the Kd [23] was at least 20 µM.

From the Immune Epitope Database (IEDB)
